Experimental data reported in paper PMC5639367 (2017).
Ends that are not written are not given here.

Target: VBC ternary complex (pVHL, Elongin B, Elongin C) (UniProt P40337 1-213; Q15370 1-104; Q15369 17-112)
Test: BLI

With ASLKPRVV-NH2 [8-mer Cul2 peptide, Met1 replaced by alanine] as the binder, how does the Kd read?
Its Kd is 2800 µM.

With MSAKPRVV-NH2 [8-mer Cul2 peptide, Leu3 replaced by alanine] as the binder, how does the Kd read?
Its Kd is 2900 µM.

For MALKPRVV-NH2 [8-mer Cul2 peptide, Ser2 replaced by alanine], which Kd is on record?
Its Kd is 7100 µM.

For MSLKPRVA-NH2 [8-mer Cul2 peptide, Val8 replaced by alanine], which Kd is on record?
The Kd was 500 µM.

For MSLKPRAV-NH2 [8-mer Cul2 peptide, Val7 replaced by alanine], which Kd is on record?
Its Kd is 2100 µM.
